Measurements: publication PMC3893232
Like-named read-outs stand apart in the source and are kept apart here.

Tests used:
[1] = SEC
[2] = SEC; remark: listed apart in the source

Row | Substance | % monomer [1] | % monomer [2]
1 | IgG1-Y407A | 1% | 5%
2 | IgG1-Y407E (natural mixture of HL and (HL)2) | 90% | 95%
